From US20120207741A1

Target: protein of the maize/soybean meal (SBM) substrate (6:4)

% dig. CP (digested protein, peptides of 1500 Dalton or below, gel filtration HPLC) in the in vitro pancreatic insufficiency digestion model (% dig. CP of total protein): 49.9
Substance: protease derived from Nocardiopsis sp. NRRL 18262 (SEQ ID NO: 1) (enzyme)
